The values that follow come from IntAct's records for PubMed 11964151.

Sequences and labels used below:
B1: Galactose/lactose metabolism regulatory protein GAL80 (Saccharomyces cerevisiae), P04387 (parent)
chain: MDYNKRSSVSTVPNAAPIRVGFVGLNAAKGWAIKTHYPAILQLSSQFQITALYSPKIETSIATIQRLKLSNATAFPTLESFASSSTIDMIVIAIQVASHYEVVMPLLEFSKNNPNLKYLFVEWALACSLDQAESIYKAAAERGVQTIISLQGRKSPYILRAKELISQGYIGDINSIEIAGNGGWYGYERPVKSPKYIYEIGNGVDLVTTTFGHTIDILQYMTSSYFSRINAMVFNNIPEQELIDERGNRLGQRVPKTVPDHLLFQGTLLNGNVPVSCSFKGGKPTKKFTKNLVIDIHGTKGDLKLEGDAGFAEISNLVLYYSGTRANDFPLANGQQAPLDPGYDAGKEIMEVYHLRNYNAIVGNIHRLYQSISDFHFNTKKIPELPSQFVMQGFDFEGFPTLMDALILHRLIESVYKSNMMGSTLNVSNISHYSL
partner: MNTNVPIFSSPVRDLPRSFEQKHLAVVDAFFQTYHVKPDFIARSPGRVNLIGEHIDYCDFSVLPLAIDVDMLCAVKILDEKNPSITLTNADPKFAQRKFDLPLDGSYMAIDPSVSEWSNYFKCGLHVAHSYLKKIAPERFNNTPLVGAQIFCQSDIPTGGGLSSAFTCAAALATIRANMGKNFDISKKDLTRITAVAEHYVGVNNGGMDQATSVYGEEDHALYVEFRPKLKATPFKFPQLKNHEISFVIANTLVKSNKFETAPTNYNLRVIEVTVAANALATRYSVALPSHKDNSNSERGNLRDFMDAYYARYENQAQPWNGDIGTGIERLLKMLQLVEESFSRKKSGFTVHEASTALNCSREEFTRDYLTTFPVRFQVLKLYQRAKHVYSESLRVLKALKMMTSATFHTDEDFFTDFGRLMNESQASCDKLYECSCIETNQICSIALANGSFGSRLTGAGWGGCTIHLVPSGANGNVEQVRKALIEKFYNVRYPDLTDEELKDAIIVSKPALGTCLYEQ

In this assay the parent is B1. The settings on record: with gal3_yeast GAL3, P13045.
On to MDYNKRSSVSTVPNAAPIRVGFVGLNAAKGWAIKTHYPAILQLSSQFQITALYSPKIETSIATIQRLKLSNATAFPTLESFASSSTIDMIVIAIQVASHYEVVMPLLEFSKNNPNLKYLFVEWALACSLDQAESIYKAAAERGVQTIISLQGRKSPYILRAKELISQGYIGDINSIEIAGNGGWYGYERPVKSPKYIYEIGNGVDLVTTTFGHTIDILQYMTSSYFSRINAMVFNNIPEQELIDERGNRLGQRVPKTVPDHLLFQGTLLNGNVPVSCSFKGGKPTKKFTKNLVIDIHGTKGDLKLEGDAGFAEISNLVLYYSGTRANDFPLANGQQAPLDPGYDAGKEIMKVYHLRNYNAIVGNIHRLYQSISDFHFNTKKIPELPSQFVMQGFDFEGFPTLMDALILHRLIESVYKSNMMGSTLNVSNISHYSL [E351K], for which the “effect of a mutation on the interaction” value was “decreasing interaction strength”.
